This passage reports stoichiometry N results from publication PMC3046144.

The target in the assay is H5N1 A/Vietnam/1203/2004 HA1 (1-330) protein from 293 Flp-In cells (influenza A virus A/Vietnam/1203/2004 (H5N1)). In words: SEC.

“H5N1 A/Vietnam/1203/2004 HA1 (1-330) protein from 293 Flp-In cells (domain or fragment)”: the stoichiometry N is 3.
